Kd data for four molecules are collected here from article PMC2884070 (Journal of hepatology, 2010).

The Kd is the constant that tells how readily two partners part at equilibrium.

The chains are these.
B1: domain 2 of JFH-1 NS5A (domain or fragment)
chain: NTYDVDMVDANLLMEGGVAQTEPESRVPVLDFLEPMAEEESDLEPSIPSECMLPRSGFPRALPAWARPDYNPPLVESWRRPDYQPPTVAGCALP
B2: full-length NS5A JFH-1-His (genotype 2a) (natural protein)
chain: SGSWLRDVWDWVCTILTDFKNWLTSKLFPKLPGLPFISCQKGYKGVWAGTGIMTTRCPCGANISGNVRLGSMRITGPKTCMNTWQGTFPINCYTEGQCAPKPPTNYKTAIWRVAASEYAEVTQHGSYSYVTGLTTDNLKIPCQLPSPEFFSWVDGVQIHRFAPTPKPFFRDEVSFCVGLNSYAVGSQLPCEPEPDADVLRSMLTDPPHITAETAARRLARGSPPSEASSSVSQLSAPSLRATCTTHSNTYDVDMVDANLLMEGGVAQTEPESRVPVLDFLEPMAEEESDLEPSIPSECMLPRSGFPRALPAWARPDYNPPLVESWRRPDYQPPTVAGCALPPPKKAPTPPPRRRRTVGLSESTISEALQQLAIKTFGQPPSSGDAGSSTGAGAAESGGPTSPGEPAPSETGSASSMPPLEGEPGDPDLESDQVELQPPPQGGGVAPGSGSGSWSTCSEEDDTTVCC
B3: full-length NS5A Con1-His (genotype 1b) (natural protein)
chain: SGSWLRDVWDWICTVLTDFKTWLQSKLLPRLPGVPFFSCQRGYKGVWRGDGIMQTTCPCGAQITGHVKNGSMRIVGPRTCSNTWHGTFPINAYTTGPCTPSPAPNYSRALWRVAAEEYVEVTRVGDFHYVTGMTTDNVKCPCQVPAPEFFTEVDGVRLHRYAPACKPLLREEVTFLVGLNQYLVGSQLPCEPEPDVAVLTSMLTDPSHITAETAKRRLARGSPPSLASSSASQLSAPSLKATCTTRHDSPDADLIEANLLWRQEMGGNITRVESENKVVILDSFEPLQAEEDEREVSVPAEILRRSRKFPRAMPIWARPDYNPPLLESWKDPDYVPPVVHGCPLPPAKAPPIPPPRRKRTVVLSESTVSSALAELATKTFGSSESSAVDSGTATASPDQPSDDGDAGSDVESYSSMPPLEGEPGDPDLSDGSWSTVSEEASEDVVCC
B4: full-length NS5A H77-His (genotype 1a) (natural protein)
chain: SGSWLRDIWDWICEVLSDFKTWLKAKLMPQLPGIPFVSCQRGYRGVWRGDGIMHTRCHCGAEITGHVKNGTMRIVGPRTCKNMWSGTFFINAYTTGPCTPLPAPNYKFALWRVSAEEYVEIRRVGDFHYVSGMTTDNLKCPCQIPSPEFFTELDGVRLHRFAPPCKPLLREEVSFRVGLHEYPVGSQLPCEPEPDVAVLTSMLTDPSHITAEAAGRRLARGSPPSMASSSASQLSAPSLKATCTANHDSPDAELIEANLLWRQEMGGNITRVESENKVVILDSFDPLVAEEDEREVSVPAEILRKSRRFAPALPVWARPDYNPLLVETWKKPDYEPPVVHGCPLPPPRSPPVPPPRKKRTVVLTESTLPTALAELATKSFGSSSTSGITGDNTTTSSEPAPSGCPPDSDVESYSSMPPLEGEPGDPDLSDGSWSTVSSGADTEDVVCC

The test deals with GST-CypA (cyclophilin A) (human, UniProt P62937 1-165). Put plainly: radioligand binding.
In turn, B1 displayed a Kd of 69 µM. The value for B2 was 108 µM; that for B3 was 126 µM. The molecule B4 showed a Kd of 131 µM.
